# Laboratory results as given in the supplement of paper PMC10219994.
# ± gives the standard deviation of the averaged measurements.
# B1: library; a variant is named by its letters at N, in order (parent)
# chain: GAGACCGCAACTGAAAAGTTGTGGNNNNNATAGTGAGTCGCTGCCTGCAAAGACACAACT
# Variants of: B1
# Test: ligation selection enrichment (abundance after / before one-round selection) (fold); higher = more template-directed ligation activity
# Conditions: with T7Psub CACGGAUGCUAAUACGACUCACUAUA; MgCl2 25 mM; 42 °C; 4 h; pH 8.5
# Procedure: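 Lib-N5 ligase ribozyme library: five randomized core nucleotides (including the GGA motif of N8-1) within the fixed N8-1 ribozyme flanks, transcribed by T7 RNA polymerase with a 5'-triphosphate. The library (0.75 uM) was reacted with substrate T7Psub (6 uM) in 50 mM EPPS pH 8.5 with 25 mM MgCl2 at 42 C for 4 h. Ligated products were PAGE-purified, reverse transcribed and MiSeq sequenced; enrichment = abundance after selection / abundance before selection, with two independent replicates. The full transcript is built from the printed template flanks.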
row,Variant,ligation selection enrichment
1,GAAAT,0.55 ± 0.2
2,GAAAC,0.146 ± 0.044
3,GAAAA,0.135 ± 0.02
4,GAAAG,0.328 ± 0.021
5,GAGAA,0.508 ± 0.036
6,GAGAC,0.765 ± 0.031
7,GAGAG,0.663 ± 0.061
8,GAGAT,11.7 ± 2.6
9,GACTC,0.111 ± 0.037
10,GACTG,0.762 ± 0.055
11,GACTA,0.161 ± 0.026
12,GACTT,0.157 ± 0.075
13,AATAT,0.299 ± 0.032
14,AATAC,0.183 ± 0.0067
15,AATAA,0.179 ± 0.049
16,AATAG,0.39 ± 0.091
17,AACAG,0.2191 ± 0.00078
18,AACAT,0.729 ± 0.14
19,AACAA,0.209 ± 0.018
20,AACAC,0.159 ± 0.016
21,AACTC,0.0963 ± 0.052
22,AACTT,0.165 ± 0.066
23,AACTG,0.506 ± 0.068
24,AACTA,0.165 ± 0.013

row,Variant,ligation selection enrichment
1,TCAGG,0.337 ± 0.062
2,TCAGA,0.474 ± 0.043
3,TCAGC,0.153 ± 0.017
4,TCAGT,0.161 ± 0.087
5,GAGTG,0.274 ± 0.035
6,GAGTA,0.27 ± 0.053
7,GAGTT,0.235 ± 0.074
8,GAGTC,0.168 ± 0.0064
9,CACGG,0.242 ± 0.057
10,CACGT,0.156 ± 0.046
11,CACGA,0.471 ± 0.005
12,CACGC,0.163 ± 0.014
13,CCACA,0.0899 ± 0.017
14,CCACC,0.0951 ± 0.0078
15,CCACT,0.416 ± 0.15
16,CCACG,0.415 ± 0.075
17,GATGG,0.46 ± 0.1
18,GATGA,0.606 ± 0.077
19,GATGC,0.247 ± 0.024
20,GATGT,0.126 ± 0.036
21,CATGC,0.1307 ± 0.00014
22,CATGG,0.226 ± 0.027
23,CATGT,0.109 ± 0.064
24,CATGA,0.381 ± 0.068

row,Variant,ligation selection enrichment
1,AAGGT,0.203 ± 0.15
2,AAGGC,0.146 ± 0.015
3,AAGGA,0.431 ± 0.013
4,AAGGG,0.331 ± 0.0073
5,AATGC,0.198 ± 0.015
6,AATGG,0.467 ± 0.097
7,AATGA,0.528 ± 0.046
8,AATGT,0.153 ± 0.076
9,AACGT,0.167 ± 0.013
10,AACGC,0.197 ± 0.017
11,AACGA,0.673 ± 0.067
12,AACGG,0.32 ± 0.045
13,TAGGT,0.115 ± 0.046
14,TAGGC,0.218 ± 0.0035
15,TAGGA,0.998 ± 0.19
16,TAGGG,0.637 ± 0.12
17,AACCA,0.1955 ± 0.00066
18,AACCT,0.845 ± 0.39
19,AACCC,0.21 ± 0.032
20,AACCG,0.526 ± 0.039
21,GCAAT,4.77 ± 1.7
22,GCAAC,0.281 ± 0.015
23,GCAAG,0.562 ± 0.043
24,GCAAA,0.304 ± 0.025

row,Variant,ligation selection enrichment
1,CAGTG,0.185 ± 0.004
2,CAGTT,0.238 ± 0.0081
3,CAGTA,0.14 ± 0.0029
4,CAGTC,0.125 ± 0.019
5,GATTG,1.47 ± 0.2
6,GATTA,0.278 ± 0.094
7,GATTC,0.183 ± 0.0076
8,GATTT,0.577 ± 0.15
9,CACTA,0.157 ± 0.041
10,CACTC,0.0626 ± 0.02
11,CACTG,0.286 ± 0.0061
12,CACTT,0.105 ± 0.047
13,TACAG,0.393 ± 0.092
14,TACAA,0.211 ± 0.08
15,TACAC,0.139 ± 0.042
16,TACAT,0.578 ± 0.12
17,AAGCG,1.09 ± 0.27
18,AAGCA,0.236 ± 0.065
19,AAGCT,0.56 ± 0.29
20,AAGCC,0.188 ± 0.021
21,ACAAC,0.224 ± 0.024
22,ACAAA,0.227 ± 0.0041
23,ACAAT,3.6 ± 0.37
24,ACAAG,0.442 ± 0.0085

row,Variant,ligation selection enrichment
1,GAATT,0.249 ± 0.099
2,GAATC,0.205 ± 0.079
3,GAATA,0.175 ± 0.0089
4,GAATG,0.478 ± 0.011
5,GAAGC,0.167 ± 0.033
6,GAAGT,0.121 ± 0.06
7,GAAGA,0.306 ± 0.024
8,GAAGG,0.571 ± 0.21
9,AAACA,0.177 ± 0.013
10,AAACC,0.196 ± 0.0049
11,AAACG,0.742 ± 0.064
12,AAACT,1.21 ± 0.29
13,CAAAT,0.595 ± 0.18
14,CAAAA,0.131 ± 0.011
15,CAAAG,0.162 ± 0.03
16,CAAAC,0.135 ± 0.028
17,GCACG,0.521 ± 0.053
18,GCACC,0.153 ± 0.024
19,GCACA,0.175 ± 0.0085
20,GCACT,0.555 ± 0.18
21,TACCC,0.202 ± 0.003
22,TACCG,0.574 ± 0.048
23,TACCA,0.184 ± 0.011
24,TACCT,0.599 ± 0.22

row,Variant,ligation selection enrichment
1,CCCAT,0.674 ± 0.13
2,CCCAC,0.168 ± 0.017
3,CCCAG,0.145 ± 0.0045
4,CCCAA,0.134 ± 0.007
5,TAGTA,0.19 ± 0.055
6,TAGTC,0.182 ± 0.044
7,TAGTG,0.6007 ± 0.0042
8,TAGTT,0.218 ± 0.078
9,ACAGG,0.217 ± 0.025
10,ACAGC,0.135 ± 0.011
11,ACAGT,0.175 ± 0.012
12,ACAGA,0.307 ± 0.022
13,TAGCT,0.547 ± 0.17
14,TAGCC,0.16 ± 0.02
15,TAGCG,0.52 ± 0.11
16,TAGCA,0.21 ± 0.016
17,GCATA,0.204 ± 0.0065
18,GCATC,0.168 ± 0.016
19,GCATT,0.257 ± 0.043
20,GCATG,0.335 ± 0.012
21,GAGGA,0.501 ± 0.11
22,GAGGG,0.345 ± 0.011
23,GAGGT,0.143 ± 0.025
24,GAGGC,0.17 ± 0.017

row,Variant,ligation selection enrichment
1,CATTC,0.152 ± 0.013
2,CATTA,0.16 ± 0.038
3,CATTG,1.24 ± 0.22
4,CATTT,0.539 ± 0.13
5,AAAAC,0.17 ± 0.018
6,AAAAT,0.461 ± 0.12
7,AAAAG,0.226 ± 0.025
8,AAAAA,0.191 ± 0.076
9,TACTG,0.641 ± 0.095
10,TACTT,0.0933 ± 0.018
11,TACTA,0.168 ± 0.08
12,TACTC,0.103 ± 0.036
13,CATAC,0.183 ± 0.029
14,CATAT,1.2 ± 0.084
15,CATAA,0.159 ± 0.023
16,CATAG,0.237 ± 0.014
17,ACATC,0.138 ± 0.056
18,ACATT,0.209 ± 0.099
19,ACATA,0.136 ± 0.019
20,ACATG,0.333 ± 0.015
21,CCAGC,0.108 ± 0.022
22,CCAGT,0.107 ± 0.041
23,CCAGG,0.178 ± 0.009
